Data on ten molecules can be found in patent US20150337051A1 (MORPHOTEK, published 2015).

B1: Antibody 15F8 (antibody, V domains shown)
VH: EVQLVESGGGLVQPGRSMKLSCSASGFTFRNYYMAWVRQAPTRGLEWVASTGTGGDFTYYRDSVKGRFTISRDTAENTLYLQMDSLRSEDTATYYCARAYGYFDYWGQGVKVTVSS
VL: DIVLTQSPTTLSVTPGETVSLSCRASHSVGTNLHWYQQKPNESPRLLIKYVSQSNSGIPSRFSASGSGTDFTLNIKNVEFNDVSSYFCQQTQSWPLTFGAGTKLEIK
notes: Rat monoclonal antibody from hybridoma, IgG2a/kappa; also called 15F8.G6.B4; ATCC PTA-12540
B2: Antibody 9A5 (antibody, V domains shown)
VH: B1 VH with S23A, T53S, K111R
VL: B1 VL with P40T, Y50D, V51A, N55M, N81D, A100S
notes: Rat monoclonal antibody from hybridoma, IgG2a/kappa; also called 9A5.G12.B10.F8.F6; ATCC PTA-12542
B3: Antibody 16D2 (antibody, V domains shown)
VH: B1 VH with T28I, R43K, N77S, R87K
VL: B1 VL with P40T, N77D, N81D, A100S
notes: Rat monoclonal antibody from hybridoma, IgG2a/kappa; also called 16D2.H12.E7.G9; ATCC PTA-12544
B4: Antibody 7D3 (antibody, V domains shown)
VH: EVQLVESGGGLVQPKGSLKLSCAASGFDFKTYAMSWVRQAPGKGLDWIVTISTKGHNYATLYADSVKERFTISRDDSQSMVYLQMNNLKTEDTALYYCTVAGYNFDYWGQGVMVTVSS
VL: DVVLTQTPSILSATIGQSVSISCRSSQSLLDSDGNTYLYWFLQRPGQSPQRLIYLVSNLGSGVPNRFSGSGSGTDFTLKISGVEAGDLGVYYCMQATHAPFTFGSGTKLEIK
notes: Rat monoclonal antibody from hybridoma, IgG2a/kappa; also called 7D3.F5.E8.D8; ATCC PTA-12538
B5: Antibody 11D1 (antibody, V domains shown)
VH: EVQLVESDGGLVQPGRSLKLSCAASGFSFSDYYMAWVRQAPTKGLEWVATISYDGSGSYYRDSVKGRFTVSRDNAKTTLYLQMDSLRSEDTATYYCARGGGLDYWGQGVMVTVSS
VL: DNVLTQAPLAVSVTPGESASISCRSSKSLLSIEGINSLYWYLQKPGKSPQLLLFRMSNLASGVPDRFSGSGSETDFTLKISQVETEDVGVYYCAQFLEFPFTFGSGTKLEIK
notes: Rat monoclonal antibody from hybridoma, IgG2a/kappa; also called 11D1.G10.F8; ATCC PTA-12541
B6: Antibody 7H12 (antibody, V domains shown)
VH: EVQLVESGGGLVQPGRSMILSCAASGFTFSNFDMAWVRQAPKMGLEWVATITYDGSRTNYRDSVKGRFTISRDSAKNTLYLQMDSLTSEDTATYYCARHGSSYYWFFDFWGPGTMVTVSS
VL: ETVMTQSPTSMPTSIGERVTLNCKASQSVGINVDWYQQTPGQSPKLLIYTASNRHTGVPDRFAGSGSGRDFTLTISNVEAEDLVVYYCLQYGSLPFTFGAGTKLELK
notes: Rat monoclonal antibody from hybridoma, IgG1/kappa; also called 7H12.H5.E7; ATCC PTA-12545
B7: Antibody 15D10 (antibody, V domains shown)
VH: QVQLMESGPGLVQPSETLSLTCTVSGFSLTNYNIHWVRQPPGKGLEWMGLMWSGGNTDYNSALKSRLTISRDTSKNQVFLKMNSLQSEDTTTYYCARDSGYGEGRLDYWGQGVMVTVSS
VL: DIVLTQAPLSVSVTPGESASISCRSSKSLLGSKGINFLYWYLQKPGKSPQLLIYRMSNLASGVPDRFSGSGSETDFILKISKVETEDVGVYYCAQFLEYPNSFGAGTKLELK
notes: Rat monoclonal antibody from hybridoma, IgG2a/kappa; also called 15D10.G4.C12; ATCC PTA-12543
B8: Antibody 14G3 (antibody, V domains shown)
VH: EVQLVEFGGGLVQPGRSLKLSCAASGFTFSDYNLAWVRQAPKKGLEWVATISYNGSEIYYRDSVKGRFTISRDNAKNTLYLQMDSLRSEDTATYYCARHWREYYSSYSSYVMDAWGQGASVTVSS
VL: DIVMTQTPSSQAVSAGAKVTLSCKSSQSLLYNKNKKNYLAWYQQKPGQSPKLLIYWASTRESGVPDRFIGSGSGTDFTLTISSVQAEDLAIYYCQQYYTFPTFGAGTKLELK
notes: Rat monoclonal antibody from hybridoma, IgG2a/kappa; also called 14G3.H4.F11.H7; ATCC PTA-12539
B9: Antibody 10H8 (antibody, V domains shown)
VH: QVQLKESGPGLVQPSQTLSLTCTVSGFSLTNYNIHWVRQPPGKGLEWMGAIWSGGSADYDSALKSRLSISRDTSKSQVFLKMDNLQTEDTAIYYCTRDQLGGWYFDFWGPGTKVTVSS
VL: DIVMTQTPSSQAVSAGEKVTMSCTSGQSLLYNENNKNYLAWYQLKPGQSPRLLIYWASTRESGVPDRFIGSGSGTYFTLTISSVQAEDLAVYYCQQYFRFPRTFGGGTKLELK
notes: Rat monoclonal antibody from hybridoma, IgG2a/kappa; also called 10H8.D7.E3; ATCC PTA-12546
B10: Antibody 9G5 (antibody, V domains shown)
VH: EVKLEESGGGLVQPGMSVKLSCATSGFTFSDYWMEWVRQAPGKGLEWVAEIRNKLNNYVTNYGKPVRGRFTISRDDSKSIVYLQVNSIRSEDTGIYYCTRIQRVITTGEYFDYWGQGVMVTVSS
VL: DIQMTQSPSLLSASEGDRVTLSCKASQNIYKYLNWYQQKLGEAPKLLIYNINNLQTGIPSRFSGSGSGTDFTLTISSLQPEDVATYYCYQYNSGRAFGGGTKLELK
notes: Rat monoclonal antibody from hybridoma, IgG1/kappa; also called 9G5.F2.C1.F4; anti-TEM-1 clone 9G5

Substitutions are numbered along the chain they refer to.

The target in the first experiment is T1, Biotinylated TEM1-Fc (murine, UniProt Q9HCU0 18-687 (human entry), limits assumed, biotinylated (sites not given)).
T1 construct: Ligand captured on the streptavidin sensor surface in the Biacore analysis; also called rTEM-1-Fc; not shown: Fc portion of a murine gamma heavy chain
T1 sequence (looked up): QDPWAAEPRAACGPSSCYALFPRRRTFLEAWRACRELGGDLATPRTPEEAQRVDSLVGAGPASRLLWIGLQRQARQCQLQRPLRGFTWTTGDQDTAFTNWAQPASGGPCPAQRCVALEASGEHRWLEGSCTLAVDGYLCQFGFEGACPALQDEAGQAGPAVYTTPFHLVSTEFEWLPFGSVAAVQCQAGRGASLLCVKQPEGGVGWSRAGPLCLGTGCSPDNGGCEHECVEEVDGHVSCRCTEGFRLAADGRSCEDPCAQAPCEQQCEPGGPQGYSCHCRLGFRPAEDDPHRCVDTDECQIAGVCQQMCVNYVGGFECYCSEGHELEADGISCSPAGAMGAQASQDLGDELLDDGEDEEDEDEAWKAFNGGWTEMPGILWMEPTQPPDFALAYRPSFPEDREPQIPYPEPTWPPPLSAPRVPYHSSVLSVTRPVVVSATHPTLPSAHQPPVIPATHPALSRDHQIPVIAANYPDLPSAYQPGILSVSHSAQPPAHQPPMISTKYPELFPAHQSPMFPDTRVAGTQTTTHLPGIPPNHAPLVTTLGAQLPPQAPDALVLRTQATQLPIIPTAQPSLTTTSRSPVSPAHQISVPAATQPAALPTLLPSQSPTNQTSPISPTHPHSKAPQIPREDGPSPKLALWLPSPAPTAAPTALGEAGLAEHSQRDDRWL
Briefly: Biacore SPR, biotinylated TEM1-Fc on streptavidin surface, antibody as analyte, 1:1 model. The procedure:
Biacore analyses were also performed to determine the affinity of selected isolated TEM-1-specific rat antibodies. For these studies streptavidin-coated sensor surfaces were generated by injecting CAP reagent for 5 minutes at a flow rate of 2 μl/min. Biotinylated TEM1-Fc (10 μg/ml) was injected onto the streptavidin coated sensor surface for 20 sec (Fc2, RL=˜50 RU), 40 sec (Fc3, RL=˜100 RU), and 60 sec (Fc4, RL=˜150 RU) at a flow rate of 25 μl/minute. Rat anti-TEM-1 MAbs were injected for 300 seconds at 0.5 nM, 2 nM, 5 nM, 20 nM, and 50 nM concentrations and the dissociations were monitored for 30 minutes at a flow rate of 25 μl/minute. The sensor surface was regenerated by injecting a CAP kit regeneration solution for 120 sec at a flow rate of 25 μl/minute. The sensorgrams were analyzed using 1:1 binding model.
On the technique in general: SPR reads the build-up and loss of mass on a sensor chip optically.
In the case of B1, the affinity, expressed as Kd, was 0.222 pM; the off-rate constant (koff) was determined as 1.65e-07 s⁻¹; the on-rate constant (kon) stood at 742000 M⁻¹ s⁻¹.

For B2, the Kd came to 21.6 pM, the off-rate (koff) is 1.84e-05 s⁻¹ and the kon worked out at 850000 M⁻¹ s⁻¹.

For B3, the Kd amounted to 0.0131 pM, the koff turned out to be 1.07e-08 s⁻¹ and the kon came to 810000 M⁻¹ s⁻¹.

Take B4: the equilibrium dissociation constant (Kd) amounted to 2.03 pM, the koff stood at 1.34e-07 s⁻¹ and the kon was 65900 M⁻¹ s⁻¹.

Molecule B5 gave a Kd of 240 pM, a koff of 9.57e-05 s⁻¹ and a kon of 400000 M⁻¹ s⁻¹.

The molecule B6 gave a dissociation constant Kd of 0.0279 pM, an off-rate (koff) of 3.01e-08 s⁻¹ and a kon of 1.08e+06 M⁻¹ s⁻¹.

For the molecule B7, the dissociation constant (Kd) was 106 pM, the koff came out at 0.000105 s⁻¹ and the kon is 993000 M⁻¹ s⁻¹.

Another experiment has as its target T2, TEM-1 in a native state on aortic smooth muscle cells (AoSMC) (UniProt Q9HCU0 18-757, limits assumed).
T2 construct: whole, on cells; also called tumor endothelial marker 1; endosialin
T2 sequence (looked up): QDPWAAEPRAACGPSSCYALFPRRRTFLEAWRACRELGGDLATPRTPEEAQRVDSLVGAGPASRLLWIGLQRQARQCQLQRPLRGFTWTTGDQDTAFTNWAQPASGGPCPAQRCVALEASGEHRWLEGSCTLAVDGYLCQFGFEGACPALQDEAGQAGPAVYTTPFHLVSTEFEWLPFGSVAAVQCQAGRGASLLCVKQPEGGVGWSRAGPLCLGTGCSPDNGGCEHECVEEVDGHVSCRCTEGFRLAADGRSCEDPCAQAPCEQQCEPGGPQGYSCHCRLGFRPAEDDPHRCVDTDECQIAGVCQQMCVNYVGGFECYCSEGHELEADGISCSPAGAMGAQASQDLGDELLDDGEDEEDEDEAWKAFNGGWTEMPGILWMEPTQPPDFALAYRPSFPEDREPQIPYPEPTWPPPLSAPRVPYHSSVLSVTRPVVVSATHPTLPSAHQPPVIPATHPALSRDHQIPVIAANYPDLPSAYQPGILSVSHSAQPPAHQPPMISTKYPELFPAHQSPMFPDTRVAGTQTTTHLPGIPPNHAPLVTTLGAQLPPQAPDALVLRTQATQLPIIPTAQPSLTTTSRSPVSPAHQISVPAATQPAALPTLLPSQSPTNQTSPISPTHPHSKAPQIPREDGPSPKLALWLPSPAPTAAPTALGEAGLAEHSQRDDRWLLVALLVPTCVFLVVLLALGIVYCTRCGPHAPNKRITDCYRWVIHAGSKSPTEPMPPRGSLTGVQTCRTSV
Briefly: flow cytometry on AoSMC, 10 µg/mL antibody, FITC goat anti-rat secondary; cells only 2.5, secondary only 3.5. The procedure: FACS analyses were also performed using aortic smooth muscle cells (AoSMC) and HUVEC cells. Cells were harvested using cell dissociation buffer (Invitrogen, #13151-014), washed twice in PBS and re-suspended at 50,000 cells/100 μL FACS buffer (PBS+2% FBS) in a round bottom 96 well plate. Cells were incubated for 1 hour on ice with the described rat TEM-1-specific antibodies at a concentration of 10 μg/mL, washed and then incubated with FITC-conjugated goat-anti-rat secondary antibodies (dilution 1:100) (Southern Biotech). Prior to analysis, cells were labeled with 7-AAD (BD Biosciences) to allow for the exclusion of nonviable cells. Cells were analyzed on an EasyCyte Flow Cytometer (Guava Technologies). The data in Table 6 indicate that all of the tested antibodies bind TEM-1 in a native state.
(Flow cytometry measures light scatter and fluorescence of single cells or particles in a stream.)
In the case of B1, the “Geometric mean of resulting FACS plot” value amounted to 72.5.

For the molecule B2, the “Geometric mean of resulting FACS plot” value was 89.9.

On to B3, for which the “Geometric mean of resulting FACS plot” value worked out at 98.

Turning to B4, the “Geometric mean of resulting FACS plot” value was found to be 63.4.

With B5, the “Geometric mean of resulting FACS plot” value was found to be 46.3.

In the case of B8, the “Geometric mean of resulting FACS plot” value turned out to be 94.2.

As to B6, the “Geometric mean of resulting FACS plot” value stood at 59.9.

Regarding B9, the “Geometric mean of resulting FACS plot” value was determined as 52.7.

Regarding B7, the “Geometric mean of resulting FACS plot” value was 86.4.

Regarding B10, the “Geometric mean of resulting FACS plot” value came to 57.4.

The Kd is the equilibrium constant for the complex coming apart. Usually koff stands for the first-order rate constant of dissociation. The kon is the second-order rate constant of association. Low readings indicate slower complex formation, high ones faster complex formation.
